The target of data set [1] is recombinant His-TBP (UniProt P20226 1-339). The data set can be described thus: EMSA; supershifted by antibody; Pull-down: 100-250 pmole probe on M-280 streptavidin Dynabeads, 100-250 ug nuclear extract, 2.5 ug salmon sperm DNA, 1 h room temperature, washes with 0.5% NP-40; EMSA: LightShift kit, 20 fmol probe, 37 C 20 min, 6% gel in 1X TBE; salt and pH not given. Particulars: protein: recombinant; tags: His; label: 5'-biotin; blunt. (Mobility shift assays separate free from complexed probe on a gel.)
recombinant His-TBP, sequence (P20226 whole entry): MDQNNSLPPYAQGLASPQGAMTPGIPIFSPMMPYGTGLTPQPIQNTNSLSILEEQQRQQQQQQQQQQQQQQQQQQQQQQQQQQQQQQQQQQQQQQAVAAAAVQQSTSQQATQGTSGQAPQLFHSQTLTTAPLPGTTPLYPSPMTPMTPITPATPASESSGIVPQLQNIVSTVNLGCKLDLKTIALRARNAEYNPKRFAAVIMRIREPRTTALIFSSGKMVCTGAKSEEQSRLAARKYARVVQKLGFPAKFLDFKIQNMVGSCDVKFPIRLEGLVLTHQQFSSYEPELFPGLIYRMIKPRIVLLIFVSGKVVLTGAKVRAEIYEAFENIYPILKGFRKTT

In data set [2] the target is recombinant His-HOXA2 (UniProt O43364 1-376). The description is as above. Particulars: protein: recombinant; tags: His; label: 5'-biotin; blunt.
recombinant His-HOXA2, sequence (O43364 whole entry): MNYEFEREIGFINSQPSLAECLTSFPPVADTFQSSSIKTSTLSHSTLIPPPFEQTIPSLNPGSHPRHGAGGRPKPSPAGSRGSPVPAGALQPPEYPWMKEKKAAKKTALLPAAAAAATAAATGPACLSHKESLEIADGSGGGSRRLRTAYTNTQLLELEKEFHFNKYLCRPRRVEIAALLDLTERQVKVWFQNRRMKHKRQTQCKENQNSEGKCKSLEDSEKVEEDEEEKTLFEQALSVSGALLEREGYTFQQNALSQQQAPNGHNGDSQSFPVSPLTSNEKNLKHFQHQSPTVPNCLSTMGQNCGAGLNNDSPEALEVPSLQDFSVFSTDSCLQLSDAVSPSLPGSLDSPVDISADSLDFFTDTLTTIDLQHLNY

B1: MMP9 TATA WT (dsDNA)
DNA 1: GAGCGCCTCCTTAAAGCCCCCACAA
DNA 2: TTGTGGGGGCTTTAAGGAGGCGCTC
For B1, the binding result in data set [1] and in data set [2] was “binds” in each case.

Source of the values: publication PMC3875777, “Aberrantly hypermethylated Homeobox A2 derepresses metalloproteinase-9 through TBP and promotes invasion in Nasopharyngeal carcinoma”.
